Assay results published in patent US20230002496A1 (STAIDSON BEIJING BIOPHARMACEUTICALS, published 2023).

T1: human GM-CSFRα-6His (human, UniProt P15509 23-320)
T1 construct: pTT5-GMRa-6his (ECD), made in 293F cells; also called GMRah; GMRa-6his(ECD)
T1 sequence: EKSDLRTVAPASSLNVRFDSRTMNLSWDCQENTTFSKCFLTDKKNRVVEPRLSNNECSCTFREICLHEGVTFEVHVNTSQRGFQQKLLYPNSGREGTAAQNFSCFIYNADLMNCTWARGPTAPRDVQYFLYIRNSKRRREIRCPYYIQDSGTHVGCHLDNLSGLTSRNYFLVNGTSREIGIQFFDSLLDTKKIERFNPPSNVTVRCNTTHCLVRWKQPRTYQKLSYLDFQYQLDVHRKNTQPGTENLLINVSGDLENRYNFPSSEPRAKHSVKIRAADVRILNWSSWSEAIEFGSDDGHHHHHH

B1: E09-IgG1 (antibody, V domains shown)
VH: QMQLVQSGAEVKKPGASVKVSCKVSGHTLTELSMHWVRQAPGKGLEWMGGFDPEDGETIYAQKFQGRVTMTGDTSTDTAYLELSSLRSEDTALYYCATGRYCGHASCYGFDYWGQGTLVTVSS
VL: EIVMTQSPATLSLSPGERATLSCRASQSVSSYLAWYQQKPGQAPRLLIYGASSRATGIPDRFSGSGSGTDFTLTISRLEPEDFAVYYCQQYNNWPPTFGQGTKLEIK
notes: human IgG1, human kappa; also called E9
B2: E16-IgG1 (antibody, V domains shown)
VH: QMQLVQSGAEVKKPGASVKVSCKVSGYTLTELSIHWVRQAPGKGLEWMGGFDPEDGEAIYAQKSQGRVTMTGDTSTDTAYLELSSLRSEDTALYYCATGRYSEHSTSYGFDYWGQGTLVTVSS
VL: EIVMTQSPATLSLSPGERATLSCRASQSVSSYLAWYQQKPGQAPRLLIYGASSRATGIPDRFSGSGSGTDFTLTISRLEPEDFAVYYCQQYDSWPYTFGQGTKLEIK
notes: human IgG1, human kappa
B3: T119-IgG1 (antibody, V domains shown)
VH: QMQLVQSGAEVKKPGASVKVSCKVSGHTLTELSIHWVRQAPGKGLEWMGGFDPEDGETNYAQKSQGRVTMTGDTSTDTAYLELSSLRSEDTALYYCATGRYCSTDTCYGFDYWGQGTLVTVSS
VL: EIVMTQSPATLSLSPGERATLSCRASQSVSSYLAWYQQKPGQAPRLLIYGASSRATGIPDRFSGSGSGTDFTLTISRLEPEDFAVYYCQQYNNWPPTFGQGTKLEIK
notes: human IgG1, human kappa; parent antibody
B4: E27-IgG1 (antibody, V domains shown)
VH: QMQLVQSGAEVKKPGASVKVSCKVSGYTLTELSIHWVRQAPGKGLEWMGGFDPEDGETIYAQKFQGRVTMTGDTSTDTAYLELSSLRSEDTALYYCATGRYISFMFTYGFDYWGQGTLVTVSS
VL: EIVMTQSPATLSLSPGERATLSCRASQSVSSYLAWYQQKPGQAPRLLIYGASSRATGIPDRFSGSGSGTDFTLTISRLEPEDFAVYYCQQYNNWPPTFGQGTKLEIK
notes: human IgG1, human kappa
B5: E30-IgG1 (antibody, V domains shown)
VH: QMQLVQSGAEVKKPGASVKVSCKVSGHTLTELSIHWVRQAPGKGLEWMGGFDPEDGETIYAQKFQGRVTMTGDTSTDTAYLELSSLRSEDTALYYCATGRYCSTDTCYGFDYWGQGTLVTVSS
VL: EIVMTQSPATLSLSPGERATLSCRASQSVSSYLAWYQQKPGQAPRLLIYGASSRATGIPDRFSGSGSGTDFTLTISRLEPEDFAVYYCQQYDNSPHTFGQGTKLEIK
notes: human IgG1, human kappa
B6: E29-IgG1 (antibody, V domains shown)
VH: QMQLVQSGAEVKKPGASVKVSCKVSGHTLTELSIHWVRQAPGKGLEWMGGFDPEDGETIYAQKFQGRVTMTGDTSTDTAYLELSSLRSEDTALYYCATGRYCFPDTCYGFDYWGQGTLVTVSS
VL: EIVMTQSPATLSLSPGERATLSCRASQSVSSYLAWYQQKPGQAPRLLIYGASSRATGIPDRFSGSGSGTDFTLTISRLEPEDFAVYYCQQYDNSPHTFGQGTKLEIK
notes: human IgG1, human kappa
B7: E34-IgG1 (antibody, V domains shown)
VH: QMQLVQSGAEVKKPGASVKVSCKVSGYTLTELSIHWVRQAPGKGLEWMGGFDPEDGETIYAQKFQGRVTMTGDTSTDTAYLELSSLRSEDTALYYCATGRYSFTDLAYGFDYWGQGTLVTVSS
VL: EIVMTQSPATLSLSPGERATLSCRASQSVSSYLAWYQQKPGQAPRLLIYGASSRATGIPDRFSGSGSGTDFTLTISRLEPEDFAVYYCQQYDSSPPTFGQGTKLEIK
notes: human IgG1, human kappa
B8: E54-IgG1 (antibody, V domains shown)
VH: QMQLVQSGAEVKKPGASVKVSCKVSGYTLTELSMHWVRQAPGKGLEWMGGFDPEDGETIYAQKFQGRVTMTGDTSTDTAYLELSSLRSEDTALYYCATGRYSSYDIAYGFDYWGQGTLVTVSS
VL: EIVMTQSPATLSLSPGERATLSCRASQSVSSYLAWYQQKPGQAPRLLIYGASSRATGIPDRFSGSGSGTDFTLTISRLEPEDFAVYYCQQYNSSPPTFGQGTKLEIK
notes: human IgG1, human kappa
B9: E40-IgG1 (antibody, V domains shown)
VH: QMQLVQSGAEVKKPGASVKVSCKVSGHTLTELSIHWVRQAPGKGLEWMGGFDPEDGETIYAQKFQGRVTMTGDTSTDTAYLELSSLRSEDTALYYCATGRYTSLDESYGFDYWGQGTLVTVSS
VL: EIVMTQSPATLSLSPGERATLSCRASQSVSSYLAWYQQKPGQAPRLLIYGASSRATGIPDRFSGSGSGTDFTLTISRLEPEDFAVYYCQQYDNSPYTFGQGTKLEIK
notes: human IgG1, human kappa
B10: E200a-IgG1 (antibody, V domains shown)
VH: QMQLVQSGAEVKKPGASVKVSCKVSGYTLTELPMHWVRQAPGKGLEWMGGFDPEDGETIYAQKFQGRVTMTGDTSTDTAYLELSSLRSEDTALYYCATGRYTIITTNYGFDYWGQGTLVTVSS
VL: EIVMTQSPATLSLSPGERATLSCRASQSVSSYLAWYQQKPGQAPRLLIYGASSRATGIPDRFSGSGSGTDFTLTISRLEPEDFAVYYCQQYDNWPPTFGQGTKLEIK
notes: human IgG1, human kappa
B11: EII55-IgG1 (antibody, V domains shown)
VH: QMQLVQSGAEVKKPGASVKVSCKVSGYTLTELSIHWVRQAPGKGLEWMGGFDGDWHETIYAQKFQGRVTMTGDTSTDTAYLELSSLRSEDTALYYCATGRYTSLDATYGFDYWGQGTLVTVSS
VL: EIVMTQSPATLSLSPGERATLSCRASQSVSSYLAWYQQKPGQAPRLLIYGASSRATGIPDRFSGSGSGTDFTLTISRLEPEDFAVYYCQQYGNRPDTFGQGTKLEIK
notes: human IgG1, human kappa
B12: E87-IgG1 (antibody, V domains shown)
VH: QMQLVQSGAEVKKPGASVKVSCKVSGYTLTELSIHWVRQAPGKGLEWMGGFDPEDGETIYAQKSQGRVTMTGDTSTDTAYLELSSLRSEDTALYYCATGRYVSLFFNYGFDYWGQGTLVTVSS
VL: EIVMTQSPATLSLSPGERATLSCRASQSVSSYLAWYQQKPGQAPRLLIYGASSRATGIPDRFSGSGSGTDFTLTISRLEPEDFAVYYCQQYNNWPPTFGQGTKLEIK
notes: human IgG1, human kappa
B13: E39-IgG1 (antibody, V domains shown)
VH: QMQLVQSGAEVKKPGASVKVSCKVSGHTLTELSIHWVRQAPGKGLEWMGGFDPEDGETIYAQKFQGRVTMTGDTSTDTAYLELSSLRSEDTALYYCATGRYCSSDLCYGFDYWGQGTLVTVSS
VL: EIVMTQSPATLSLSPGERATLSCRASQSVSSYLAWYQQKPGQAPRLLIYGASSRATGIPDRFSGSGSGTDFTLTISRLEPEDFAVYYCQQYDNSPHTFGQGTKLEIK
notes: human IgG1, human kappa
B14: E113-IgG1 (antibody, V domains shown)
VH: QMQLVQSGAEVKKPGASVKVSCKVSGYTLTELSIHWVRQAPGKGLEWMGGFDPEDGETIYAQKSQGRVTMTGDTSTDTAYLELSSLRSEDTALYYCATGRYTELFASYGFDYWGQGTLVTVSS
VL: EIVMTQSPATLSLSPGERATLSCRASQSVSSYLAWYQQKPGQAPRLLIYGASSRATGIPDRFSGSGSGTDFTLTISRLEPEDFAVYYCQQYNNWPYTFGQGTKLEIK
notes: human IgG1, human kappa
B15: E85-IgG1 (antibody, V domains shown)
VH: QMQLVQSGAEVKKPGASVKVSCKVSGYTLTELSIHWVRQAPGKGLEWMGGFDPEDGETIYAQKSQGRVTMTGDTSTDTAYLELSSLRSEDTALYYCATGRYSSYFTNYGFDYWGQGTLVTVSS
VL: EIVMTQSPATLSLSPGERATLSCRASQSVSSYLAWYQQKPGQAPRLLIYGASSRATGIPDRFSGSGSGTDFTLTISRLEPEDFAVYYCQQYNNWPYTFGQGTKLEIK
notes: human IgG1, human kappa
B16: E105-IgG1 (antibody, V domains shown)
VH: QMQLVQSGAEVKKPGASVKVSCKVSGYTLTELSIHWVRQAPGKGLEWMGGFDPEDGETIYAQKFQGRVTMTGDTSTDTAYLELSSLRSEDTALYYCATGRYTSLMFTYGFDYWGQGTLVTVSS
VL: EIVMTQSPATLSLSPGERATLSCRASQSVSSYLAWYQQKPGQAPRLLIYGASSRATGIPDRFSGSGSGTDFTLTISRLEPEDFAVYYCQQYNNWPPTFGQGTKLEIK
notes: human IgG1, human kappa
B17: E113-IgG4 (antibody, V domains shown)
VH: QMQLVQSGAEVKKPGASVKVSCKVSGYTLTELSIHWVRQAPGKGLEWMGGFDPEDGETIYAQKSQGRVTMTGDTSTDTAYLELSSLRSEDTALYYCATGRYTELFASYGFDYWGQGTLVTVSS
VL: EIVMTQSPATLSLSPGERATLSCRASQSVSSYLAWYQQKPGQAPRLLIYGASSRATGIPDRFSGSGSGTDFTLTISRLEPEDFAVYYCQQYNNWPYTFGQGTKLEIK
notes: human IgG4, human kappa
B18: E90-IgG4 (antibody, V domains shown)
VH: QMQLVQSGAEVKKPGASVKVSCKVSGYTLTELSIHWVRQAPGKGLEWMGGFDPEDGETIYAQKSQGRVTMTGDTSTDTAYLELSSLRSEDTALYYCATGRYTGLYASYGFDYWGQGTLVTVSS
VL: EIVMTQSPATLSLSPGERATLSCRASQSVSSYLAWYQQKPGQAPRLLIYGASSRATGIPDRFSGSGSGTDFTLTISRLEPEDFAVYYCQQYDNWPYTFGQGTKLEIK
notes: human IgG4, human kappa
B19: E94-IgG4 (antibody, V domains shown)
VH: QMQLVQSGAEVKKPGASVKVSCKVSGHTLTELSMHWVRQAPGKGLEWMGGFDPEDGETIYAQKFQGRVTMTGDTSTDTAYLELSSLRSEDTALYYCATGRYCETDICYGFDYWGQGTLVTVSS
VL: EIVMTQSPATLSLSPGERATLSCRASQSVSSYLAWYQQKPGQAPRLLIYGASSRATGIPDRFSGSGSGTDFTLTISRLEPEDFAVYYCQQYNNWPPTFGQGTKLEIK
notes: human IgG4, human kappa

Molecular target: T1, human GM-CSFRα-6His
Experiment: ELISA on human GM-CSFRα, antibodies as human IgG1; x axis 'Log Ab concentration', no unit

Binding result, binds:
B1
B2
B3
B4
B5
B6
B7
B8

Molecular target: T1, human GM-CSFRα-6His
Experiment: as above
Remark: another data set of the same source

Binding result, binds:
B9
B10
B11
B12
B13
B14
B15
B16

Molecular target: T1, human GM-CSFRα-6His
Experiment: competitive ELISA, title on the sheet 'Blocking GMRah binding to GM-CSF'; antibody (human IgG4) titrated; blocked ligand GM-CSF; x axis 'Log Ab concentration', no unit

Binding result, binds:
B17
B18
B19
